Among the data in paper PMC11309785 are Kd values, retold here.

What all share (assay): SPR; ProteOn XPR36, HC30M chip; IgG captured at low density (about 50 to 100 RU) by anti-human IgG (Fc) antibody, trimer flowed as analyte, highest concentration 3 µM; 1x HBS-EP+ pH 7.4 with BSA 1 mg/ml
For assay [1], the target named is BG18 inferred germline IgG, Gly at the (D3-3)+2 position (human).
For assay [2], the target named is BG18 inferred germline IgG, Asp at the (D3-3)+2 position (human).
For assay [3], the target named is BG18 inferred germline IgG, Glu at the (D3-3)+2 position (human).
Sequence of BG18 inferred germline IgG, Glu at the (D3-3)+2 position (human) (heavy, as listed by the source, chain 1 of 2): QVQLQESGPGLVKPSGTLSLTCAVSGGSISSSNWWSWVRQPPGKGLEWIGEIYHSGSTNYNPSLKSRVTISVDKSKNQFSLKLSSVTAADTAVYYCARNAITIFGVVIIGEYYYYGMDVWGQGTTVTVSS
Sequence of BG18 inferred germline IgG, Glu at the (D3-3)+2 position (human) (light, as listed by the source, chain 2 of 2): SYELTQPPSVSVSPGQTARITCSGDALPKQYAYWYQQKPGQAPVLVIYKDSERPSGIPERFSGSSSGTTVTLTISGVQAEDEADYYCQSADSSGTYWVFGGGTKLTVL

Sequence of BG18 inferred germline IgG, Gly at the (D3-3)+2 position (human) (heavy, as listed by the source, chain 1 of 2): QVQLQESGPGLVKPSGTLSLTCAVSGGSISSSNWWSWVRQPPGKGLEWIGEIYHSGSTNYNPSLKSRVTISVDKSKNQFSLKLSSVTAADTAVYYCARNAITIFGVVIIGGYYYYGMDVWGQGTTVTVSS
Sequence of BG18 inferred germline IgG, Gly at the (D3-3)+2 position (human) (light, as listed by the source, chain 2 of 2): as the sequence (light, as listed by the source, chain 2 of 2) above
Sequence of BG18 inferred germline IgG, Asp at the (D3-3)+2 position (human) (heavy, as listed by the source, chain 1 of 2): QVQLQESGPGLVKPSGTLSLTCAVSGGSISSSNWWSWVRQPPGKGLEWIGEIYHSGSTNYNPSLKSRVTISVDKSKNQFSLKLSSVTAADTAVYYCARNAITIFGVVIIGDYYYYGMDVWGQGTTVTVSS
Sequence of BG18 inferred germline IgG, Asp at the (D3-3)+2 position (human) (light, as listed by the source, chain 2 of 2): as the sequence (light, as listed by the source, chain 2 of 2) above

For the substance “N332-GT5 trimer (BG505_MD65_congly_N332-GT5)”, the values for the Kd in assay [1], in assay [2] and in assay [3] were 1790 nM, 39 nM and 0.7 nM, respectively.
